From patent publication US20090202531A1 (Novartis, published 2009)

Legend:
human FcγRIIIa-158V = biological target: T1, human FcγRIIIa-158V (human, UniProt P08637 17-208); assay: Biacore (SPR)
T1 construct: also called FcγRIIIa aa518V allele (sic); FcγRIIIa aa158V

human FcγRIIIa-158F [1] = biological target: T2, human FcγRIIIa-158F (human, UniProt P08637 17-208, limits assumed); assay: Biacore (SPR)
T2 construct: also called FcγRIIIa aa158F allele

human FcγRIIIa-158F [2] = biological target: T2, human FcγRIIIa-158F; assay: Biacore (SPR); reference rituximab on the same allele

T2 sequence (P08637 17-208 limits assumed): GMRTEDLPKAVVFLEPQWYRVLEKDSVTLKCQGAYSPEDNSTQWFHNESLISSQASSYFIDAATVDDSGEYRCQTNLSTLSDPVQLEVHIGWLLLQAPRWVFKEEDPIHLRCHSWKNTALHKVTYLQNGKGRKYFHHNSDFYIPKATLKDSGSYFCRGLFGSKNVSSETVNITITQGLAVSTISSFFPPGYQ
T1 sequence (P08637 17-208 F176V): as the sequence (P08637 17-208 limits assumed) above, with F160V counted along it

Kd (human FcγRIIIa-158V): 492 nM
Kd (human FcγRIIIa-158F [1]): 2800 nM
fold higher affinity compared with rituximab (human FcγRIIIa-158F [2]): 4.6 fold
B1: monoclonal antibody CHIR-12.12 (antibody)
heavy: not shown
light: DIVMTQSPLSLTVTPGEPASISCRSSQSLLYSNGYNYLDWYLQKPGQSPQVLISLGSNRASGVPDRFSGSGSGTDFTLKISRVEAEDVGVYYCMQARQTPFTFGPGTKVDIRRTVAAPSVFIFPPSDEQLKSGTASVVCLLNNFYPREAKVQWKVDNALQSGNSQESVTEQDSKDSTYSLSSTLTLSKADYEKHKVYACEVTHQGLSSPVTKSFNRGEC
notes: Fully human anti-CD40 IgG1 kappa; also called CH12.12
